For the experiment, the target named is T1, GSTPCNA (S. cerevisiae, UniProt P15873 1-258).
T1 construct: PCNA of S. cerevisiae; not shown: GST, N-terminal, kept
T1 sequence (looked up): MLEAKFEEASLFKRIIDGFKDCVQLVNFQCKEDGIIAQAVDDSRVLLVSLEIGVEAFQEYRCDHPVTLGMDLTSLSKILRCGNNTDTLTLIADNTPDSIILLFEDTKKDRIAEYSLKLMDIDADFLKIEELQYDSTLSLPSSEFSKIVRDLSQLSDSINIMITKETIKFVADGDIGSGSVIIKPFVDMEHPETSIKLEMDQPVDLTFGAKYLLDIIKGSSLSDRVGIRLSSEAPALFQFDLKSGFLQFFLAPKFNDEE
Kind of experiment: pull-down; GST-tagged protein immobilised on glutathione Sepharose (1 h, 4°C), binding partner added for 90 min at 4°C in phosphate-buffered saline with 0.05% Triton X-100; three washes; anti-His western blot. The following applies: both partners purified. Background: A western blot detects proteins with antibodies after separation by electrophoresis.

Changes are numbered by the printed parent chain. Names and notes keep the numbering of the source.

B1: HisRad18(1-255) (domain or fragment, S. cerevisiae, UniProt P10862 1-255, looked up)
chain: MDHQITTASDFTTTSIPSLYQLDTLLRCHICKDFLKVPVLTPCGHTFCSLCIRTHLNNQPNCPLCLFEFRESLLRSEFLVSEIIQSYTSLRSSLLDALRIPKPTPVPENEEVPGPENSSWIELISESESDSVNAADDDLQIVATSERKLAKRSMTDILPLSSKPSKRNFAMFRSERIKKKSKPNEQMAQCPICQQFYPLKALEKTHLDECLTLQSLGKKPKISTTFPTESNPHNKSSSRFKVRTPEVDKSSCGET
notes: detected by anti-His western blot; not shown: His6, N-terminal, kept
Turning to B1, the binding result was “binds”.

B2: HisRad18(1-255) SIM* (L139A, I141A, V142A) (domain or fragment, S. cerevisiae, UniProt P10862 1-255, looked up)
chain: B1 chain with L139A, I141A, V142A
notes: also called SIM* mutant; not shown: His6, N-terminal, kept
For the molecule B2, the binding result was “binds”.

These data come from PMC3526273, “A SUMO-interacting motif activates budding yeast ubiquitin ligase Rad18 towards SUMO-modified PCNA” (Nucleic Acids Research, 2012).
